Measured values from patent publication US20240116985A1 (published 2024).
One block for each binder: values may come before it. Starred links: 1 amine or outer side, 2 acyl side, 3 side chain; linkers in the order of their positions; H or OH if unused. Positions of bridges follow the written chain, without caps; N, C: chain ends. Non-standard residues stand in square brackets, D forms with d. Primed or numbered codes have the meaning given here. PyrS2″ = (S)-3-amino-1-((pent-4-en-1-yloxy)carbonyl)pyrrolidine-3-carboxylic acid (stapling residue), C=CCCCOC(=O)N1CC[C@@](N[*:1])(C(=O)[*:2])C1; B5(17) = 2,2-bis(4-pentenyl)glycine = 2-amino-2-(pent-4-en-1-yl)hept-6-enoic acid, stitching residue, C=CCCCC(CCCC=C)(N[*:1])C(=O)[*:2]; B5(4) = 2,2-bis(4-pentenyl)glycine = 2-amino-2-(pent-4-en-1-yl)hept-6-enoic acid (stitching residue), C=CCCCC(CCCC=C)(N[*:1])C(=O)[*:2]; TfeGA = (S)-2-amino-3-((carboxymethyl)(2,2,2-trifluoroethyl)amino)propanoic acid, O=C([C@H](CN(CC(=O)[*:3])CC(F)(F)F)N[*:1])[*:2]; SdN = (S)-4-(((allyloxy)carbonyl)(methyl)amino)-2-amino-2-methylbutanoic acid, C=CCOC(=O)N(C)CC[C@](C)(N[*:1])C(=O)[*:2]; (EtSSEt)AspE = (S)-2-amino-4-(2-(ethyldisulfaneyl)ethoxy)-4-oxobutanoic acid, CCSSCCOC(=O)C[C@H](N[*:1])C(=O)[*:2]; B5(3) = 2,2-bis(4-pentenyl)glycine (stitching residue), C=CCCCC(CCCC=C)(N[*:1])C(=O)[*:2]; Bta = N[C@@H](Cc1csc2ccccc12)C(=O)O; αAllylPro = C=CC[C@@]1(C(=O)O)CCCN1; tBuAla = CC(C)(C)C[C@H](N)C(=O)O; 3Thi = N[C@@H](Cc1ccsc1)C(=O)O

What was measured:
B-cat-Halo = biological target: T1, B-cat-Halo (UniProt P35222 1-781); assay: cell-based or functional assay
T1 sequence (looked up): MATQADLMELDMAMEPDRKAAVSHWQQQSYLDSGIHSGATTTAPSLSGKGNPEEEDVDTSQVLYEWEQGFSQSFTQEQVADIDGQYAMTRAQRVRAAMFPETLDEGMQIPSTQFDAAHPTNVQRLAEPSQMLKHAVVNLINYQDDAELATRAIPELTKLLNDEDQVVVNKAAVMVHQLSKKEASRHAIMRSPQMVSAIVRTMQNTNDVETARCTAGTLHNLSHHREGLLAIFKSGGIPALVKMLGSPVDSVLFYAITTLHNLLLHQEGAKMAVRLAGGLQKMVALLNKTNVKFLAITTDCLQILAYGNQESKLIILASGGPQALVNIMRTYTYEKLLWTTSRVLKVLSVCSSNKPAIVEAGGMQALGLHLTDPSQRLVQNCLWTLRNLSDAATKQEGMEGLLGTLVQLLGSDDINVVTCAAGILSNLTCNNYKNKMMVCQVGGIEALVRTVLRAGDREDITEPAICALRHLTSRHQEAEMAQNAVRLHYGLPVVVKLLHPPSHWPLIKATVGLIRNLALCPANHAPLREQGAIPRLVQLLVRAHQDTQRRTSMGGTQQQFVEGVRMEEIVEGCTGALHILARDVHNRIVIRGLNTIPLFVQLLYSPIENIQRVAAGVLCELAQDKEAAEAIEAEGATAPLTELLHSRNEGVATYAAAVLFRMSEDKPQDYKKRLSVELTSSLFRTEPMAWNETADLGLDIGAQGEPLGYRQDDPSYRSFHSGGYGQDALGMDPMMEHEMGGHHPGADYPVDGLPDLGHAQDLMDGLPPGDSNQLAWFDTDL

[1] = biological target: T2, full-length beta-Catenin (Uniprot ID P35222) (Homo sapiens (Human), UniProt P35222 1-781); assay: fluorescence polarization competition; full-length beta-catenin, 5FAM-TCF4(10-53) probe as competitor
T2 construct: The assay protocol says 'full-length'; also called bCat; B-Catenin
T2 sequence: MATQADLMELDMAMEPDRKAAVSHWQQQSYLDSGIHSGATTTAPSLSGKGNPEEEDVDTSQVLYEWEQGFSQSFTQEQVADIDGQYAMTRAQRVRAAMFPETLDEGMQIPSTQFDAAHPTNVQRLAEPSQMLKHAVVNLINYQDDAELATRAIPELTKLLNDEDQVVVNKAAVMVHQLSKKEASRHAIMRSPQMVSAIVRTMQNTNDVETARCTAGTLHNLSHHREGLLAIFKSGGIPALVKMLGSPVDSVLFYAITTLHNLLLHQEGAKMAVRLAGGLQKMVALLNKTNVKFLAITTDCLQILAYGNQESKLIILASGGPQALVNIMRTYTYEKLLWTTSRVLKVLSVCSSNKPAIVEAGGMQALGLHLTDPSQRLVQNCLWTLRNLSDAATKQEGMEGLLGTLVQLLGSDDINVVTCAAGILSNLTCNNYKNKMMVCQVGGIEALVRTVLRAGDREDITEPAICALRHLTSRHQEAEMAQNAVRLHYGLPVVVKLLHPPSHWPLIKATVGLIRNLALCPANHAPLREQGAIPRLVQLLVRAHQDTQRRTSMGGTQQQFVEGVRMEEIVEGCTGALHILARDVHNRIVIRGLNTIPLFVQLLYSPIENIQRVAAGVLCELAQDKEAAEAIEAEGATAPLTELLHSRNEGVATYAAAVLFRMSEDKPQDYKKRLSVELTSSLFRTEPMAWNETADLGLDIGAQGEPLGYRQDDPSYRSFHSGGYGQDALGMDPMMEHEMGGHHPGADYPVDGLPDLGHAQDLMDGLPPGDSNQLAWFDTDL
Method: The plate was incubated protected from light for 60 minutes at 20° C. prior to read. Reads were performed on a CLARIOstar plate reader (BMG Labtech) in duplicate, and data were fitted to a 1:1 binding model with hill slope using an in-house script. All provided concentrations are final concentrations.

[2] = biological target: T3, B-cat-Halo (beta-catenin HaloTag Nano-BRET construct) (UniProt P35222 1-781); assay: cell-based or functional assay
T3 sequence (looked up): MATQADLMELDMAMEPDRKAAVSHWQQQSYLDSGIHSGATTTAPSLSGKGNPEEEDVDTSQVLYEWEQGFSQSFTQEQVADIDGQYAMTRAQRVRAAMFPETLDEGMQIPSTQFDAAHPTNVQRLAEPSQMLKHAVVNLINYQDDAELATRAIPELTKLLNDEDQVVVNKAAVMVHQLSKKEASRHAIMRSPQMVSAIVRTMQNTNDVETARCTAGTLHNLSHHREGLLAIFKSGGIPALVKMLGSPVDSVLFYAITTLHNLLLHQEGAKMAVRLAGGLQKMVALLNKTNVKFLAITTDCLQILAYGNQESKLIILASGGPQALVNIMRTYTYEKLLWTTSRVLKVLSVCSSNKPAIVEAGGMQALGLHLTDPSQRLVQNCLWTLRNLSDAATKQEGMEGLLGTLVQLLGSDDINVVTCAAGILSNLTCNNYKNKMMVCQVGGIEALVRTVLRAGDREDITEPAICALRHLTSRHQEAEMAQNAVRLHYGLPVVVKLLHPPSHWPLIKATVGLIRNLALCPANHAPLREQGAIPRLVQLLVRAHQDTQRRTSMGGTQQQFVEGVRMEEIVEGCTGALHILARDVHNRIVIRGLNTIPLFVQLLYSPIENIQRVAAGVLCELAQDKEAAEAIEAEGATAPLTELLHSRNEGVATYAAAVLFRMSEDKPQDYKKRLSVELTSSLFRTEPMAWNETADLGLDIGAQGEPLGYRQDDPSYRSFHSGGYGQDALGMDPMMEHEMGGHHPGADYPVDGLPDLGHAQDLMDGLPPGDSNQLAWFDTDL

NanoBRET Abs IC50 (B-cat-Halo): 13.9 µM
B1: I-988 (peptide)
peptide: Ac-[αAllylPro]D[tBuAla][B5(3)]D[TfeGA]AAFF[PyrS2″]F[Bta]Q-NH2
modifications: staple 1-4, 4-11

IC50 [1]: 5 µM
B2: I-55: Ac-PL3-Asp-Ala-B5-Asp-Asp-Ala-Ala-Phe-Val-SdN-Phe-Trp-Gln-NH2 (stapled peptide) (peptide)
peptide: Ac-[αAllylPro]DA[B5(17)]DDAAFV[SdN]FWQ-NH2
modifications: staple 1-4, 4-11
notes: Tested as stapled peptide composition

NanoBRET Abs IC50 [2]: 25.2 µM
B3: I-1965 (peptide)
peptide: Ac-[αAllylPro]D[tBuAla][B5(4)]D[(EtSSEt)AspE]AAFL[PyrS2″][3Thi][Bta]Q-NH2
modifications: staple 1-4, 4-11
